How the values were obtained:
[1] = Immunogenicity test, antibody titre by direct ELISA, Example 6; assay type: in vivo, mouse (Balb/c); conditions: 30 nmol/kg daily for 28 days, serum on day 45
GIPR = biological target: T1, GIPR (Homo sapiens, UniProt P48546); conditions: cited from earlier work
T1 sequence (P48546 22-466): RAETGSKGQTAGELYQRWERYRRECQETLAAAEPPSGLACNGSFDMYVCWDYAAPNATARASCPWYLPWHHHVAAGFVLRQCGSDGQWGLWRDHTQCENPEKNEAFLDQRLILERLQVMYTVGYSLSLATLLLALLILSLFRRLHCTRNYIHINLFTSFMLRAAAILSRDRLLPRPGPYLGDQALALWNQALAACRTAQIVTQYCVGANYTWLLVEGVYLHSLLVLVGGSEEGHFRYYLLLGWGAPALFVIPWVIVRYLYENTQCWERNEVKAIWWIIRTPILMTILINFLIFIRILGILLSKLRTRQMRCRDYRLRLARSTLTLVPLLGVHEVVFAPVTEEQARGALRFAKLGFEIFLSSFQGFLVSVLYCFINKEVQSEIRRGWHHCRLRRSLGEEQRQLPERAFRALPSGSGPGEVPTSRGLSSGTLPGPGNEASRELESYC

[2] = cited from earlier work
[3] = human, in vivo; cited from earlier work

## Glucagon [C001]
[1]
  Immunogenicity in vivo: 极低
GIPR
  GIPR agonist activity: 没有GIPR激动活性

## GLP-1 [天然GLP-1]
[2]
  Half-life in vivo: ~2 分钟

## Taspoglutide
[3]
  Antibody formation rate: 49 %

Source: CN109836488A, “一种治疗代谢疾病的胰高血糖素类似物” (Zhejiang Doer Biologics Co Ltd, priority 2017, dated 2019)
